# T1: recombinant human FLT3 (Homo sapiens, UniProt P36888)
# T1 construct: purchased Sino Biological 10445-H08H
# T1 sequence (P36888 27-541 limits assumed): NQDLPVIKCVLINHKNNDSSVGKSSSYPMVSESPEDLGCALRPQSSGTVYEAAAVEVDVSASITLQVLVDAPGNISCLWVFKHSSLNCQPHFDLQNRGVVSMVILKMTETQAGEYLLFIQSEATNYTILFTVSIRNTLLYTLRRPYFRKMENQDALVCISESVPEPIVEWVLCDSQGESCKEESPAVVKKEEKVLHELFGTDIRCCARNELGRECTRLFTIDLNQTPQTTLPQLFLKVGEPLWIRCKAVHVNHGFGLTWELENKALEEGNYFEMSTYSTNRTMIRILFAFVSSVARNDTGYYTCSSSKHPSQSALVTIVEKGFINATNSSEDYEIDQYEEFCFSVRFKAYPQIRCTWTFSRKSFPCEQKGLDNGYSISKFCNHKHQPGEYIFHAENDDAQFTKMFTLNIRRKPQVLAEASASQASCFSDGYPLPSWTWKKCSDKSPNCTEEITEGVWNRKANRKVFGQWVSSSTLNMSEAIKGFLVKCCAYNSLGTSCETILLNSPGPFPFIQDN
# T2: Ba/F3 cells expressing human wildtype FLT3 (Homo sapiens, UniProt P36888)
# T2 construct: expressed in transfected cells; host or cells: Ba/F3 cells, retrovirally transduced with MSCV-IRES-YFP (pMIY) vector
# T2 sequence (P36888 27-993): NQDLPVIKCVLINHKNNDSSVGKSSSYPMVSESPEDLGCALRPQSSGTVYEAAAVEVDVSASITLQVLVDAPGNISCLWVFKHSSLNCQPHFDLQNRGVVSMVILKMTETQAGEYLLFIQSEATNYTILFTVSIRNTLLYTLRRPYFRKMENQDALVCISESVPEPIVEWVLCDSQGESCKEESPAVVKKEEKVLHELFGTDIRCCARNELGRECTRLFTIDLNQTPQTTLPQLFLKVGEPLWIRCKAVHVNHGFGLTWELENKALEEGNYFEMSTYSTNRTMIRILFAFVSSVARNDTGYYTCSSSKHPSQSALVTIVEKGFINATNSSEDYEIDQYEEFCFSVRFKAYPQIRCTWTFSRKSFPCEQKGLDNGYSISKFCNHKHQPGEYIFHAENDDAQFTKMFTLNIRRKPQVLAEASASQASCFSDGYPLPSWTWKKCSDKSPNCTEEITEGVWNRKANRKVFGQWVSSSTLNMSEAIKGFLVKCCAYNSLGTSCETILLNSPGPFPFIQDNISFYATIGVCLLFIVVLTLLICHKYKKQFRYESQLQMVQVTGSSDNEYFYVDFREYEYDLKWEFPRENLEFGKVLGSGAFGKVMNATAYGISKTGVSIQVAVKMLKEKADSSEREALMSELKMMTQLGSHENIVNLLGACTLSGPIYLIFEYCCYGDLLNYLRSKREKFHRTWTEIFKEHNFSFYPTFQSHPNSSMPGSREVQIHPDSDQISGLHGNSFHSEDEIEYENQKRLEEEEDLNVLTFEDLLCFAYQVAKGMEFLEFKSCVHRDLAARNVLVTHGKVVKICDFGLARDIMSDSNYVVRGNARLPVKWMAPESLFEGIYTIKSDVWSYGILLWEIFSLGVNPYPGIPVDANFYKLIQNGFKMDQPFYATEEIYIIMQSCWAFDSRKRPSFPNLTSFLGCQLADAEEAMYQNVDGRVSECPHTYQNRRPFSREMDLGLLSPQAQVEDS
# B1: 20D9: chimeric (rat variable regions, human IgG1) anti-FLT3 monoclonal antibody; VH SEQ ID NO: 5, VL SEQ ID NO: 6 (antibody, V domains shown)
# VH: DVMLVESGGGLVQPGRSLKLSCVASGFTFNNYWMTWIRQAPGKGLEWIASITKTGGGTYYPDSVKGRFTISRDNAKSTLYLQMNSLRSEDTATYYCTTLQQLGVMDAWGQGASVTVSSA
# VL: DVQMTQSPSVLSASVGDRITLNCKASQNINKELNWYQQKLGEAPKLLIYNTNNLQTGIPSRFSGSGSGTDYTLTISSLQPEDVATYFCFQHKSWPLTFGSGTKLEIKR
# modifications: Clone 20D9, heavy chain variable region without a signal seqeunce; Clone 20D9, light chain variable region without a signal seqeunce
# B2: 4B12: chimeric anti-FLT3 antibody from rat; VH SEQ ID NO: 9, VL SEQ ID NO: 10 (antibody, V domains shown)
# VH: QVQLQQSGPGLVQPSQTLSLTCTVSGFSLTSYNVNWVRQPPGKGLEWIGAMWRGGGTDYNPALKSRLSISRDTSKSQVFLKMNRLQTEDTAIYFCTRGFGDYWGQGVMVTVSSA
# VL: DIQMTQTPLSLSVAIGQSASISCKSSQSLKYSDGKTYLNWVFQSPGQSPKRLIYQVSKLDSGVPDRFSGTGSETDFTLKISRVEAEDLGVYYCCQGSYSPSTFGAGTKLELKR
# modifications: Clone 4B12, heavy chain variable region without a signal sequence; Clone 4B12, light chain variable region without a signal seqeunce
# Tests used:
# [1] = test system: MOLM-13 (FLT3 positive) cells; test: Temperature induced internalization in MOLM-13, flow cytometry; type: cell-based, human; conditions: 30 min at 37° C. compared to 4° C.
# Experimental: For antibody binding studies, cells were stained on ice with primary mouse, rat or human anti-FLT3 antibodies (in house) and secondary antibody Goat F(ab′)2 Anti-Human Ig-PE (2012-09), Goat Anti-Mouse IgG (H+L)-PE (1032-09) or Goat Anti-Rat IgG (H+L)-PE (3052-09) purchased from Southern Biotech. For internalization experiments, cells incubated with anti-FLT3 antibodies were washed and incubated for 30 min at 4° C. or 37° C. followed by staining with secondary antibody.
# recombinant human FLT3 = target: T1, recombinant human FLT3; test: ELISA affinity to recombinant human FLT3; type: binding; conditions: chimeric Ab clones
# From the text: FIG. 1: Evaluation of epitope specificity and internalization capability of anti-FLT3 monoclonal antibodies. (A) Affinity of seven anti-FLT3 monoclonal antibody (mab) clones to recombinant human FLT3 measured in enzyme-linked immunosorbent assay (ELISA) normalized to the binding of the antibodies to BSA control. […] (B) Schematic FLT3 receptor. Black arrows indicate common mutations and blue arrows indicate the three identified epitopes of seven anti-FLT3 antibodies analyzed in linear epitope mapping by PEPperPRINT. Figure was created with BioRender.com. (C) Binding and temperature induced internalization of anti-FLT3 antibodies in Ba/F3 cells expressing human wildtype FLT3. Internalization was induced by incubation for 30 min at 37° C. (grey) compared to 4° C. (black). Remaining surface-bound antibody was detected in flow cytometry. MFI was normalized to control human IgG1 binding. MFI=mean fluorescence intensity. […] (D) Cell surface binding of 20D9 mab or control human IgG1 antibody to Ba/F3 cells stably expressing pMIY (Ba/F3-pMIY) empty vector (ev), human wildtype (hFLT3 wt) or ITD mutant human FLT3 (hFLT3ITD) was measured in flow cytometry. Mean±s.d. of n=3. (E) Temperature induced internalization of 4B12 mab in MOLM-13 (FLT3 positive) cells after 30 min incubation at 37° C. compared to 4° C. and HL-60 (FLT3 negative) after 37° C. incubation assessed in immunofluorescence staining. Red=FLT3 staining by 4B12, Green=membrane staining by Vybrant DiO, Blue=nuclear staining by DAPI. Scale bar 5 μm. Representative pictures are shown. (F) Cell surface binding of 20D9 mab or control hIgG1 antibody to Ba/F3-pMIY ev, hFLT3 wt, murine (mFLT3 wt) or cynomolgues monkey FLT3 (cynoFLT3 wt) was measured in flow cytometry. Mean±s.d. of n=3. (G) Cell surface binding of 20D9 mab or control hIgG1 antibody to Ba/F3-PMIY ev, hFLT3 wt or epitope mutant FLT3 (hFLT3/S50P/P54R) measured in flow cytometry. Mean±s.d. of n=3. (H) Cell surface binding of 20D9 mab or control hIgG1 antibody to Ba/F3-PMIY ev, hFLT3 wt or human CD64 (hCD64) measured in flow cytometry. Mean±s.d. of n=3.
# Maxisorp plates were coated with human recombinant FLT3 protein (10445-H08H, Sino Biological). Chimeric (20D9) or humanized anti-FLT3 monoclonal antibodies (in house) and secondary alkaline phosphatase conjugated rabbit anti-human IgG antibody (309-055-008, Jackson Immunoresearch) were used. For detection, Attophos Fluorescent Substrate System (S1000, Promega) was applied. The fluorescence was read with excitation of 405 nm and emission at 500-550 nm. The calculation of the dissociation constant KD was performed using GraphPad Prism version 9.4.0.
# [2] = target: T2, Ba/F3 cells expressing human wildtype FLT3; test: Temperature induced internalization in Ba/F3-FLT3, flow cytometry; type: cell-based; conditions: 30 min at 37° C. compared to 4° C.
# From the text: FIG. 1: Evaluation of epitope specificity and internalization capability of anti-FLT3 monoclonal antibodies. (A) Affinity of seven anti-FLT3 monoclonal antibody (mab) clones to recombinant human FLT3 measured in enzyme-linked immunosorbent assay (ELISA) normalized to the binding of the antibodies to BSA control. […] (B) Schematic FLT3 receptor. Black arrows indicate common mutations and blue arrows indicate the three identified epitopes of seven anti-FLT3 antibodies analyzed in linear epitope mapping by PEPperPRINT. Figure was created with BioRender.com. (C) Binding and temperature induced internalization of anti-FLT3 antibodies in Ba/F3 cells expressing human wildtype FLT3. Internalization was induced by incubation for 30 min at 37° C. (grey) compared to 4° C. (black). Remaining surface-bound antibody was detected in flow cytometry. MFI was normalized to control human IgG1 binding. MFI=mean fluorescence intensity. […] (D) Cell surface binding of 20D9 mab or control human IgG1 antibody to Ba/F3 cells stably expressing pMIY (Ba/F3-pMIY) empty vector (ev), human wildtype (hFLT3 wt) or ITD mutant human FLT3 (hFLT3ITD) was measured in flow cytometry. Mean±s.d. of n=3. (E) Temperature induced internalization of 4B12 mab in MOLM-13 (FLT3 positive) cells after 30 min incubation at 37° C. compared to 4° C. and HL-60 (FLT3 negative) after 37° C. incubation assessed in immunofluorescence staining. Red=FLT3 staining by 4B12, Green=membrane staining by Vybrant DiO, Blue=nuclear staining by DAPI. Scale bar 5 μm. Representative pictures are shown. (F) Cell surface binding of 20D9 mab or control hIgG1 antibody to Ba/F3-pMIY ev, hFLT3 wt, murine (mFLT3 wt) or cynomolgues monkey FLT3 (cynoFLT3 wt) was measured in flow cytometry. Mean±s.d. of n=3. (G) Cell surface binding of 20D9 mab or control hIgG1 antibody to Ba/F3-PMIY ev, hFLT3 wt or epitope mutant FLT3 (hFLT3/S50P/P54R) measured in flow cytometry. Mean±s.d. of n=3. (H) Cell surface binding of 20D9 mab or control hIgG1 antibody to Ba/F3-PMIY ev, hFLT3 wt or human CD64 (hCD64) measured in flow cytometry. Mean±s.d. of n=3. […]
Molecule,Internalization in MOLM-13 [1] [%],Affinity Kd (recombinant human FLT3) [ng/mL],Internalization in Ba/F3-FLT3 [2] [%]
B1,64,21.88,79
B2,58,31.91,86
